The values that follow come from article PMC3112360.

Test [1] concerns the target homocysteinylated fibronectin (human (endogenous in primary human dermal fibroblasts)) (UniProt P02751). As to the kind of experiment: ELISA.
The target of test [2] is homocysteinylated FN40K fragment (human) (UniProt P02751). As to the kind of experiment: ELISA.
homocysteinylated FN40K fragment (human), sequence (P02751 32-2477): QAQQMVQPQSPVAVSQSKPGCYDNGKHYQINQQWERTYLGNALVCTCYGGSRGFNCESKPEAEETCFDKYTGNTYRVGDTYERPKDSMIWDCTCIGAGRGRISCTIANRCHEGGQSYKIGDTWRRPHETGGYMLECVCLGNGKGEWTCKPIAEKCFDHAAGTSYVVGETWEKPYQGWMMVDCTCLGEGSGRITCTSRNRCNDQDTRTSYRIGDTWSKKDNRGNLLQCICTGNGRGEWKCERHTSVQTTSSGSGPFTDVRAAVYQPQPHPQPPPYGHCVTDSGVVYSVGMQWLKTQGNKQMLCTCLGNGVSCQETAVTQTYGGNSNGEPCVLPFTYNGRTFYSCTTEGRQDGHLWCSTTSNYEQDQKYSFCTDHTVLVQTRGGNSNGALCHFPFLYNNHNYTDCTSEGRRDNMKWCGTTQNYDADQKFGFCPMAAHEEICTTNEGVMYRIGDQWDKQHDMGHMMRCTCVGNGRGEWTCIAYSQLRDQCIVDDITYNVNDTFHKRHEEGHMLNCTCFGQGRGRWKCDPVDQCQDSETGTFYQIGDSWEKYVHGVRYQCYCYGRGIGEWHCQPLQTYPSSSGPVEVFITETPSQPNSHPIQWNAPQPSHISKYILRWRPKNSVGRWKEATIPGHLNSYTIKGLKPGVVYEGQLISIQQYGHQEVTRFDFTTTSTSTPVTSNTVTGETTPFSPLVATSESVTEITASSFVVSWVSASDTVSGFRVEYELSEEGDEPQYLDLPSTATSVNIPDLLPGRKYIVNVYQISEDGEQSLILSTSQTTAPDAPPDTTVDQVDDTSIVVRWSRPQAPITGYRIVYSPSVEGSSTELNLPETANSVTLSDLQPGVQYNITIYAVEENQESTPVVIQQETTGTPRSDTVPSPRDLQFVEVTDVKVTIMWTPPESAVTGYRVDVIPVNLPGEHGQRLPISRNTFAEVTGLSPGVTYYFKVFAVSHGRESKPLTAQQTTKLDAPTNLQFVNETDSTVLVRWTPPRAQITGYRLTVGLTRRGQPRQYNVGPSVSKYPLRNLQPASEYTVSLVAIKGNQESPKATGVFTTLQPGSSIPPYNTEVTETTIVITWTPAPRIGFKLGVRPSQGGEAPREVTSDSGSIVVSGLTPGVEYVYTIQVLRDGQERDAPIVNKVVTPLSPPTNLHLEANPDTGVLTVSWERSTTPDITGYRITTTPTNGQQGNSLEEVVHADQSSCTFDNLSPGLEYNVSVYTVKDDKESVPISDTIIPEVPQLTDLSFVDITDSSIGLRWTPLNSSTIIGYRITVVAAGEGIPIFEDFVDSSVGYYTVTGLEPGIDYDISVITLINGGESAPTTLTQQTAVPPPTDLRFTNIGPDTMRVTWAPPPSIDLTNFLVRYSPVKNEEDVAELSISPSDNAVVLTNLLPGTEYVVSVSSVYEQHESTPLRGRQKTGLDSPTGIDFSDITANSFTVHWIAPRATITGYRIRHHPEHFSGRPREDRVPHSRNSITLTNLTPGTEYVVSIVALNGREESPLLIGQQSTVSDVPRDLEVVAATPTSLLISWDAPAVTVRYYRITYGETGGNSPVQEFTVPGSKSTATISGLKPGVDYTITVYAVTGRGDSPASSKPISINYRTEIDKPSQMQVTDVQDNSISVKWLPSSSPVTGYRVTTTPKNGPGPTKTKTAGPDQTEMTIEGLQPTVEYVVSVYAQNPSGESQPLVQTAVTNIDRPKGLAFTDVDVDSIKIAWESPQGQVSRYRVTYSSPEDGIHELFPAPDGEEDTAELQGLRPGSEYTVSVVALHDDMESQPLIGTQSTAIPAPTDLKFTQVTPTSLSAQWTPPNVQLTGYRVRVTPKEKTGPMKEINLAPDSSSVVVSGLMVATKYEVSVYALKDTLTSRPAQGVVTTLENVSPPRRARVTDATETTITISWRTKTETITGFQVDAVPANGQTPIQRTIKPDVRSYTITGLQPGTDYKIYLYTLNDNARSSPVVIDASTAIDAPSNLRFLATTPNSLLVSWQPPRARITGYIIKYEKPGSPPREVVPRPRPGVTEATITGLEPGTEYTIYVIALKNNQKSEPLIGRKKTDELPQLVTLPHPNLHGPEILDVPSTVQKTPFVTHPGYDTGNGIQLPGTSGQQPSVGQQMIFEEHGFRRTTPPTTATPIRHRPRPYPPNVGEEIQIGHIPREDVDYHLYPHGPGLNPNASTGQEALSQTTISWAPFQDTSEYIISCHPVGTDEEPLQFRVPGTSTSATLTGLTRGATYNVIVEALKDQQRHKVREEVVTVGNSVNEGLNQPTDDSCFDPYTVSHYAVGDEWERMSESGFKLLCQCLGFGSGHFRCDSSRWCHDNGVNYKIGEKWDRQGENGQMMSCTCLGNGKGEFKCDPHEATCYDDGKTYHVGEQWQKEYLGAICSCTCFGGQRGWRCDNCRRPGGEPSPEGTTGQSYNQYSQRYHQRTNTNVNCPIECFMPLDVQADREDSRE

homocysteinylated fibronectin (human (endogenous in primary human dermal fibroblasts)), sequence (P02751 32-2477): as above

Turning to “recombinant C-terminal half of fibrillin-1 (rFBN1-C) (from UniProt P35555 45-2731) (domain or fragment)”, the relative reduction in binding against the non-modified control in test [1] came to 65%; in test [2], 34.1%.
